{
  "source": "IntAct's records for PubMed 25009770",
  "key": {"[1]": {"molecular_target": "T1, psmd9_human PSMD9 (UniProt O00233)", "T1 sequence": "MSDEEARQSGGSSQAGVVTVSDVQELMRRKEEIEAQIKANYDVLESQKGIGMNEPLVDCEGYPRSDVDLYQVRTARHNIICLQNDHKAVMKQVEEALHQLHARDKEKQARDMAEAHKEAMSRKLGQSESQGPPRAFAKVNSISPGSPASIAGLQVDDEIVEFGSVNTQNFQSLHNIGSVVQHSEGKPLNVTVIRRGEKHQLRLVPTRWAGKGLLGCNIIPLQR"}, "[2]": {"molecular_target": "T1, psmd9_human PSMD9", "remark": "listed apart in the source"}},
  "data": [
    {"substance": "Small ribosomal subunit protein uS11 (Homo sapiens) (from UniProt P62263) L151G", "values": [
      {"measurement": "effect of a mutation on the interaction", "setting": "[1]", "value": "disrupting interaction strength"},
      {"measurement": "effect of a mutation on the interaction", "setting": "[2]", "value": "decreasing interaction strength"}
    ]}
  ]
}
